Experimental data reported in US20110159025.

What was measured:
[1] = target: HIV-2 capsid (CA) (UniProt P04590)
[2] = test system: HIV-1 capsid (CA), wild type, newly synthesized from HIVGFP (NL4-3 derived)
[3] = target: HIV-1 capsid mutant G89V (pLaiΔEnv-GFP3 G89V) (UniProt P03348)

cyclophilin A (CypA)
infection and activation of MDDC [1]: has the potential to infect and activate MDDC in a CypA-dependent manner | CD86 expression in MDDC infected with HIVGFP(G)+SIVVLP(G), Cyclosporin A added at different times [2]: Up to 24 h, Cyclosporin A (CsA) reduces CD86 expression | CD86 up-regulation in MDDC after shRNA knockdown of CypA [2]: prevented CD86 up-regulation following infection with HIV-1 (HDVIRESRFP(G), encoding the reporter RFP), but not following treatment with LPS | MDDC activation (CD86 up-regulation) under Cyclosporin A [2]: prevented MDDC activation following infection with HIVGFP(G) and SIVVLP(G), but not following treatment with LPS | CD86 expression in infected MDDC [3]: resulted in substantially reduced CD86 expression at similar levels of infection
